Data on 1 substance can be found in patent US20140294834A1.

This assay addresses his tagged cMET (UniProt P08581). Put plainly: BLI (Fortebio Octet), antibody loaded on Protein A tips, his tagged cMET in solution, 1:1 fit.

In turn, Onartuzumab (antibody) showed a Kd of 1.2 nM. This lies in the single-digit nanomolar range.
